The text below walks through data of publication PMC6138639, “The ZZ-type zinc finger of ZZZ3 modulates the ATAC complex-mediated histone acetylation and gene activation” (Nature Communications, 2018).

Test [1] has as its target T1, H3K4ac peptide of the tryptophan fluorescence and NMR titration experiments.
T1 chain: ARTKQTAR
As to the kind of experiment: tryptophan fluorescence. The following applies: chain shown with the change; H3K4ac (1–12) peptide; triplicates.

The target in test [2] is T2, unmodified H3 peptide of the tryptophan fluorescence and NMR titration experiments.
T2 chain: ARTKQTARKSTG
Put plainly: tryptophan fluorescence. The following applies: chain shown with the change; H3 (1–12) peptide; triplicates.

B1: ZZZ3 ZZ domain (aa 800–903), GST cleaved, Q8IYH5 F821A (protein)
chain: KLKKQKLQQMQAESGFVQHVGAKCDNCGIEPIQGVRWHCQDCPPEMSLDFCDSCSDCLHETDIHKEDHQLEPIYRSETFLDRDYCVSQGTSYNYLDPNYFPANR
In the case of B1, the values for the dissociation constant Kd in test [1] and in test [2] were 294 µM and 271 µM, respectively.
